# Results reported in patent publication US7485712.
# pKd: −log10 of the molar value.
# Legend:
# [1] = biological target: microtubules assembled from porcine brain PC-tubulin (not taxol-stabilised) (porcine) (UniProt P02550); assay: cell-based or functional assay
# [2] = biological target: taxol-stabilised microtubules (porcine brain tubulin) (porcine) (UniProt P02550); assay: binding to taxol stabilized microtubules (30 µM tubulin dimers) after p110MARK phosphorylation
# [3] = biological target: taxol-stabilised microtubules (porcine brain tubulin) (porcine) (UniProt P02550); assay: binding to taxol stabilized microtubules (30 µM tubulin dimers), binding curve
# MAP4, phosphorylated with NPK-110, sequence (P27546 630-1125): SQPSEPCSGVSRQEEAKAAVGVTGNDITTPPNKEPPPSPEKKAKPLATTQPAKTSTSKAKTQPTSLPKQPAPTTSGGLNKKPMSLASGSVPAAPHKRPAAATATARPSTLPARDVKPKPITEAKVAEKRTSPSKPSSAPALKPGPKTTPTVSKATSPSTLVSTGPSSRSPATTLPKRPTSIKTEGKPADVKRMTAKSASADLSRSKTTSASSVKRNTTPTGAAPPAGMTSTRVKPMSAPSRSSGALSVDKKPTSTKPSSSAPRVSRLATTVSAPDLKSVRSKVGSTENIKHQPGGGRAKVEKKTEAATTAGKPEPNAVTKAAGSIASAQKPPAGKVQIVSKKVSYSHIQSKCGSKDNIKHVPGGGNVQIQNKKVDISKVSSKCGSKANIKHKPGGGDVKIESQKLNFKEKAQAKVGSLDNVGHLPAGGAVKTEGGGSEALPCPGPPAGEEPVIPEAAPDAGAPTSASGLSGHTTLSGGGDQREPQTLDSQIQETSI
Substance,"mean length of microtubules, against the control without ATP (fold of control) [1]",pKd [2],further results
"MAP2, phosphorylated with NPK-110",0.5,,
"MAP2cA319, phosphorylated with p110MARK",,5.15,
"MAP2cA350, phosphorylated with p110MARK",,5.15,
"MAP4, phosphorylated with NPK-110",0.5,,
"recombinant wild type MAP2c, non-phosphorylated",,,pKd [3]: 6.60; saturation [3]: 17 µM; stoichiometry (MAP2c molecules per tubulin dimer) [3]: 0.5
"recombinant wild type MAP2c, phosphorylated with p110MARK (NPK-110)",0.5,,
